Reference: the supplement of paper PMC10065799, “High-throughput profiling of sequence recognition by tyrosine kinases and SH2 domains using bacterial peptide display” (eLife, 2023)

Molecular target: Grb2 SH2 (UniProt P62993)
Test: SH2 binding enrichment of the phosphorylated peptide, bacterial display (enrichment ratio); higher = better substrate or ligand; peptides without Tyr show the background
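For SH2 binding enrichment of the phosphorylated peptide, bacterial display in this document: peptide library displayed on the E. coli surface as eCPX fusions, selected cells deep-sequenced, score is each peptide's frequency after selection divided by its frequency in the input.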
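For phosphorylation enrichment, bacterial display in this document: 11-residue human phosphosite peptides and single-mutation variants displayed on the E. coli surface, counted by deep sequencing, each peptide's frequency after selection divided by its frequency in the unselected input library; frequency after pTyr selection over input frequency; kinase dosed for 20-30% of maximal phosphorylation in three min.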

Chain of Grb2 SH2 (P62993 whole entry, looked up): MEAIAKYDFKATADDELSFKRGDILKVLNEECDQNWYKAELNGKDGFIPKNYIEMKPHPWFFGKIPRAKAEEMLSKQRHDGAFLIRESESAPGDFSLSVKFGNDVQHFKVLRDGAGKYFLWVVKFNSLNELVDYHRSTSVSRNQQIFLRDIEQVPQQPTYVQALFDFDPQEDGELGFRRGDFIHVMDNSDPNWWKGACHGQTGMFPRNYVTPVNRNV

In order of falling SH2 binding enrichment:
1. SFCFRYRCAAW [SUMF1_Y344_R349W_YF]  2.09
2. TQRPHYKGGGG [TYROBP_Y112_Y111H]  1.55
3. YEEDPYLVVNP [MCM6_Y810]  1.2
4. SVVEPYEPPEV [TP53_Y220_V218E]  1.13
5. YCGYSYDDIPD [TMEM230_Y112_R108C]  0.988
6. AVEDQYFRVDC [FHL1_Y207_C209R_YF]  0.934
7. TEQDPYNNIVC [MMUT_Y364_R369C]  0.86
8. SPLEVYVDKSQ [FLNA_Y373_F370L]  0.859
9. EAMSDYKKQLR [SPATA18_Y229]  0.852
10. LPPGTYPSDFA [UNC5B_Y511]  0.84
11. RSIGEYDVLRA [PRKDC_Y2936_G2941A]  0.81
12. FGDTSYIPFRD [CDC14C_Y132_P131S]  0.8
13. KLFYIYTPGTT [SLC27A4_Y245_S247P]  0.798
14. TNFRFYLRSLE [MTM1_Y71_L70F_YF]  0.772
15. AHAGEYGADAL [HBA1_Y25_E28D]  0.708
16. TVEDHYYEGGI [TKT_Y563]  0.569

Molecular target: SHP2-C SH2
Test: as above

In order of falling SH2 binding enrichment:
1. SFCFRYRCAAW [SUMF1_Y344_R349W_YF]  1.58
2. YCGYSYDDIPD [TMEM230_Y112_R108C]  1.43
3. TQRPHYKGGGG [TYROBP_Y112_Y111H]  1.39
4. KLFYIYTPGTT [SLC27A4_Y245_S247P]  1.15
5. EAMSDYKKQLR [SPATA18_Y229]  1.05
6. AVEDQYFRVDC [FHL1_Y207_C209R_YF]  0.892
7. TNFRFYLRSLE [MTM1_Y71_L70F_YF]  0.89
8. YEEDPYLVVNP [MCM6_Y810]  0.855
9. TEQDPYNNIVC [MMUT_Y364_R369C]  0.814
10. SVVEPYEPPEV [TP53_Y220_V218E]  0.726
11. LPPGTYPSDFA [UNC5B_Y511]  0.714
12. AHAGEYGADAL [HBA1_Y25_E28D]  0.61
13. FGDTSYIPFRD [CDC14C_Y132_P131S]  0.599
14. SPLEVYVDKSQ [FLNA_Y373_F370L]  0.585
15. TVEDHYYEGGI [TKT_Y563]  0.482
16. RSIGEYDVLRA [PRKDC_Y2936_G2941A]  0.441

Molecular target: c-Src SH2
Test: as above

In order of falling SH2 binding enrichment:
1. YCGYSYDDIPD [TMEM230_Y112_R108C]  10.6
2. TVEDHYYEGGI [TKT_Y563]  3.79
3. YEEDPYLVVNP [MCM6_Y810]  3.48
4. SFCFRYRCAAW [SUMF1_Y344_R349W_YF]  1.78
5. TEQDPYNNIVC [MMUT_Y364_R369C]  1.52
6. TQRPHYKGGGG [TYROBP_Y112_Y111H]  1.27
7. RSIGEYDVLRA [PRKDC_Y2936_G2941A]  1.14
8. SVVEPYEPPEV [TP53_Y220_V218E]  0.608
9. AVEDQYFRVDC [FHL1_Y207_C209R_YF]  0.591
10. TNFRFYLRSLE [MTM1_Y71_L70F_YF]  0.536
11. FGDTSYIPFRD [CDC14C_Y132_P131S]  0.536
12. SPLEVYVDKSQ [FLNA_Y373_F370L]  0.477
13. KLFYIYTPGTT [SLC27A4_Y245_S247P]  0.471
14. AHAGEYGADAL [HBA1_Y25_E28D]  0.448
15. EAMSDYKKQLR [SPATA18_Y229]  0.438
16. LPPGTYPSDFA [UNC5B_Y511]  0.369

Molecular target: FGFR1 (UniProt P11362)
Test: phosphorylation enrichment, bacterial display (enrichment ratio); higher = better substrate or ligand; peptides without Tyr show the background

Chain of FGFR1 (P11362 whole entry, looked up): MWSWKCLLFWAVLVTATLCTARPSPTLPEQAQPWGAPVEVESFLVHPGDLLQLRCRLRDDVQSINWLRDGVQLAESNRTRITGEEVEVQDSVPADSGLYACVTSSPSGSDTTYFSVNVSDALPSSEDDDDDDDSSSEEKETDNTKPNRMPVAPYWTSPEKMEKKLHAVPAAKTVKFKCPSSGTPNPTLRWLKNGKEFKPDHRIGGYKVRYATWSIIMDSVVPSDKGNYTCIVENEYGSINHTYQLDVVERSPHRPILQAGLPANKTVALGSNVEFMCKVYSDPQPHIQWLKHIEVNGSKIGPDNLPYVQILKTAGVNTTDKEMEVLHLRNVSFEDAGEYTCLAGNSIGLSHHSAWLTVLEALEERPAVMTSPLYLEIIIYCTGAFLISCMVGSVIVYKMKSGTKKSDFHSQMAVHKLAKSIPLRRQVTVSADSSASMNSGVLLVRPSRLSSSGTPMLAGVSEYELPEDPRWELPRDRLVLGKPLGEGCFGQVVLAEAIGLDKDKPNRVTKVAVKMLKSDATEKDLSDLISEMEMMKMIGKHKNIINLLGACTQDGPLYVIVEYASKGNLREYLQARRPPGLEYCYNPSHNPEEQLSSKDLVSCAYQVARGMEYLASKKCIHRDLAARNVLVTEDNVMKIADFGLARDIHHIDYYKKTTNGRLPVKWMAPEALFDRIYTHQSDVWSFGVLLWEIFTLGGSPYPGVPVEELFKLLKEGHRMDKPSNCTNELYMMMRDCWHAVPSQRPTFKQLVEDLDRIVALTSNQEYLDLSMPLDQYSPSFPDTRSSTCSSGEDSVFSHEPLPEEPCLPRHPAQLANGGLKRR

In order of rising phosphorylation enrichment:
1. EAMSDYKKQLR [SPATA18_Y229]  0.378
2. AHAGEYGADAL [HBA1_Y25_E28D]  0.392
3. TQRPHYKGGGG [TYROBP_Y112_Y111H]  0.45
4. SFCFRYRCAAW [SUMF1_Y344_R349W_YF]  0.501
5. FGDTSYIPFRD [CDC14C_Y132_P131S]  0.517
6. SVVEPYEPPEV [TP53_Y220_V218E]  0.521
7. LPPGTYPSDFA [UNC5B_Y511]  0.543
8. TNFRFYLRSLE [MTM1_Y71_L70F_YF]  0.548
9. SPLEVYVDKSQ [FLNA_Y373_F370L]  0.631
10. TEQDPYNNIVC [MMUT_Y364_R369C]  0.659
11. KLFYIYTPGTT [SLC27A4_Y245_S247P]  0.753
12. RSIGEYDVLRA [PRKDC_Y2936_G2941A]  0.772
13. YEEDPYLVVNP [MCM6_Y810]  1.52
14. YCGYSYDDIPD [TMEM230_Y112_R108C]  1.53
15. TVEDHYYEGGI [TKT_Y563]  1.72
16. AVEDQYFRVDC [FHL1_Y207_C209R_YF]  4.27

Molecular target: Hck (UniProt P08631)
Test: as above

Chain of Hck (P08631 whole entry, looked up): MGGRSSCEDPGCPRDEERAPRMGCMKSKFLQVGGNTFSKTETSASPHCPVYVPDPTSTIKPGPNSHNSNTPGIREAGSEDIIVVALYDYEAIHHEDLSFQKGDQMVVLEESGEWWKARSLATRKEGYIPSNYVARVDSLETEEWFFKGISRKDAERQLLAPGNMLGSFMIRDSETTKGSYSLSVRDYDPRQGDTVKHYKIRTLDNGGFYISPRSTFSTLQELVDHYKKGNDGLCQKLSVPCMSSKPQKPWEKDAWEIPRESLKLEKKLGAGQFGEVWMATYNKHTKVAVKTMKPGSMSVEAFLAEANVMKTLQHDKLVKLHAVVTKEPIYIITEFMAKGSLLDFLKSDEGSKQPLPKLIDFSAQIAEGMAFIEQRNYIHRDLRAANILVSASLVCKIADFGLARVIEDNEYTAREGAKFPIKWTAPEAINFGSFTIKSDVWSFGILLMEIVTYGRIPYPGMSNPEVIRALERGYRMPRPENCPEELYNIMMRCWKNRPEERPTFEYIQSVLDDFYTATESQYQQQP

In order of rising phosphorylation enrichment:
1. EAMSDYKKQLR [SPATA18_Y229]  0.383
2. AHAGEYGADAL [HBA1_Y25_E28D]  0.436
3. SFCFRYRCAAW [SUMF1_Y344_R349W_YF]  0.442
4. FGDTSYIPFRD [CDC14C_Y132_P131S]  0.443
5. LPPGTYPSDFA [UNC5B_Y511]  0.461
6. SVVEPYEPPEV [TP53_Y220_V218E]  0.472
7. SPLEVYVDKSQ [FLNA_Y373_F370L]  0.523
8. KLFYIYTPGTT [SLC27A4_Y245_S247P]  0.527
9. TQRPHYKGGGG [TYROBP_Y112_Y111H]  0.535
10. AVEDQYFRVDC [FHL1_Y207_C209R_YF]  0.542
11. TVEDHYYEGGI [TKT_Y563]  0.565
12. TEQDPYNNIVC [MMUT_Y364_R369C]  0.566
13. TNFRFYLRSLE [MTM1_Y71_L70F_YF]  0.633
14. YCGYSYDDIPD [TMEM230_Y112_R108C]  0.799
15. YEEDPYLVVNP [MCM6_Y810]  1.06
16. RSIGEYDVLRA [PRKDC_Y2936_G2941A]  7.58

Tested on: c-Src
Test: as above

In order of rising phosphorylation enrichment:
1. AHAGEYGADAL [HBA1_Y25_E28D]  0.357
2. SFCFRYRCAAW [SUMF1_Y344_R349W_YF]  0.363
3. SVVEPYEPPEV [TP53_Y220_V218E]  0.4
4. LPPGTYPSDFA [UNC5B_Y511]  0.422
5. EAMSDYKKQLR [SPATA18_Y229]  0.452
6. TQRPHYKGGGG [TYROBP_Y112_Y111H]  0.454
7. TNFRFYLRSLE [MTM1_Y71_L70F_YF]  0.455
8. SPLEVYVDKSQ [FLNA_Y373_F370L]  0.508
9. FGDTSYIPFRD [CDC14C_Y132_P131S]  0.518
10. AVEDQYFRVDC [FHL1_Y207_C209R_YF]  0.519
11. KLFYIYTPGTT [SLC27A4_Y245_S247P]  0.58
12. TVEDHYYEGGI [TKT_Y563]  0.588
13. TEQDPYNNIVC [MMUT_Y364_R369C]  0.642
14. RSIGEYDVLRA [PRKDC_Y2936_G2941A]  1.17
15. YCGYSYDDIPD [TMEM230_Y112_R108C]  1.75
16. YEEDPYLVVNP [MCM6_Y810]  2.48

Tested on: c-Abl (mouse)
Test: as above

In order of falling phosphorylation enrichment:
1. RSIGEYDVLRA [PRKDC_Y2936_G2941A]  1.87
2. TQRPHYKGGGG [TYROBP_Y112_Y111H]  0.97
3. TNFRFYLRSLE [MTM1_Y71_L70F_YF]  0.931
4. YCGYSYDDIPD [TMEM230_Y112_R108C]  0.926
5. YEEDPYLVVNP [MCM6_Y810]  0.861
6. AVEDQYFRVDC [FHL1_Y207_C209R_YF]  0.838
7. KLFYIYTPGTT [SLC27A4_Y245_S247P]  0.784
8. TEQDPYNNIVC [MMUT_Y364_R369C]  0.784
9. AHAGEYGADAL [HBA1_Y25_E28D]  0.776
10. TVEDHYYEGGI [TKT_Y563]  0.745
11. SPLEVYVDKSQ [FLNA_Y373_F370L]  0.723
12. SVVEPYEPPEV [TP53_Y220_V218E]  0.601
13. LPPGTYPSDFA [UNC5B_Y511]  0.565
14. FGDTSYIPFRD [CDC14C_Y132_P131S]  0.546
15. SFCFRYRCAAW [SUMF1_Y344_R349W_YF]  0.45
16. EAMSDYKKQLR [SPATA18_Y229]  0.442

Tested on: Fer (mouse)
Test: as above

In order of rising phosphorylation enrichment:
1. AHAGEYGADAL [HBA1_Y25_E28D]  0.312
2. FGDTSYIPFRD [CDC14C_Y132_P131S]  0.391
3. EAMSDYKKQLR [SPATA18_Y229]  0.405
4. RSIGEYDVLRA [PRKDC_Y2936_G2941A]  0.446
5. SFCFRYRCAAW [SUMF1_Y344_R349W_YF]  0.454
6. SVVEPYEPPEV [TP53_Y220_V218E]  0.462
7. LPPGTYPSDFA [UNC5B_Y511]  0.5
8. SPLEVYVDKSQ [FLNA_Y373_F370L]  0.521
9. TNFRFYLRSLE [MTM1_Y71_L70F_YF]  0.558
10. TQRPHYKGGGG [TYROBP_Y112_Y111H]  0.565
11. KLFYIYTPGTT [SLC27A4_Y245_S247P]  0.594
12. AVEDQYFRVDC [FHL1_Y207_C209R_YF]  0.626
13. TEQDPYNNIVC [MMUT_Y364_R369C]  0.627
14. TVEDHYYEGGI [TKT_Y563]  0.636
15. YEEDPYLVVNP [MCM6_Y810]  0.825
16. YCGYSYDDIPD [TMEM230_Y112_R108C]  1.95
